Source: patent US6362326B1, “11 cby genomic sequence” (SmithKline Beecham Corporation, priority 1998, dated 2002)

Molecular target: 11cby polypeptide of SEQ ID NO: 2 (Homo sapiens, UniProt Q99705)
Assay: binding of 11cby polypeptide to melanin-concentrating hormone
Settings: qualitative statement, method or value not given

Chain of 11cby polypeptide of SEQ ID NO: 2 (Q99705 whole entry): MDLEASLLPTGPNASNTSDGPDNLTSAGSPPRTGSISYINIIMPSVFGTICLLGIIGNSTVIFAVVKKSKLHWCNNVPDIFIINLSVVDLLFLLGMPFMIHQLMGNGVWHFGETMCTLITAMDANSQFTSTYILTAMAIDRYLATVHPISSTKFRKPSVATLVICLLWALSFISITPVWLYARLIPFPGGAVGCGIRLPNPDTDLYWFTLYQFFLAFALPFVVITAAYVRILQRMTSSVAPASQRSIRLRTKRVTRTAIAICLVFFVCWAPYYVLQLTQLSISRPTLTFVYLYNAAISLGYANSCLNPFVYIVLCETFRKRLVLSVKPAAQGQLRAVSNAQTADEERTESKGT

binding to 11cby polypeptide (7-transmembrane receptor): bind
Substance: H-Asp-Phe-Asp-Met-Leu-Arg-Cys-Met-Leu-Gly-Arg-Val-Tyr-Arg-Pro-Cys-Trp-Gln-Val-OH [MCH]
